First the molecules themselves.
B1: Venus::LAT-1 (C. elegans latrophilin homolog LAT-1 fused to Venus) [C. elegans] / Nluc::LAG-2 (C. elegans DSL protein/Notch ligand LAG-2 fused to Nanoluciferase) [C. elegans] (parent complex)
chain 1: SNKPTTDESGTISHTICDGEAAELSCPAGKVISIVLGNYGRFSVAVCLPDNDIVPSNINCQNHKTKSILEKKCNGDSMCYFTVDKKTFTEDPCPNTPKYLEVKYNCVVPATTTTTTTTTSTTTTDSSLIVDEEEEAQKDALNSDVIKPVKKKEDVFCSATNRRGVNWQNTKSGTTSSAPCPEGSSGKQLWACTEEGQWLTEFPNSAGCESNWISSRNSVLSGVISSEDVSGLPEFLRNLGSETRRPMVGGDLPKVLHLLEKTVNVIAEESWAYQHLPLSNKGAVEVMNYMLRNQEIWGSWDVTKRKEFASRFILAAEKAMVASAKGMMTSAESNVIVQPAITVEISHKIKMSSQPTDYILFPSAALWNGQNVDNVNIPRDAILKINKDETQVFFSSFDNLGAQMTPSDVTVAIAGTDQTEVRKRRVVSRIVGASLIENGKERRVENLTQPVRITFYHKESSVRHLSNPTCVWWNHHELKWKPSGCKLSYHNKTMTSCDCTHLTHFAVLMDVRGHDLNEIDQTLLTLLTYVGCIISIICLLLTFFAYLIFSRNGGDRVFIHENLCLSLAIAEITFLAGITRTEDSLQCGIIAVALMYMFLSALTWMLLEGYHIHRMLTEVFPSDPRRFTYLLVGYIPPAIITLVAYLYNSDGFGTPDHCWLSTQNNFIWFFAGPACFIFCANSLVLVKTLCTVYQHTSGGYLPCRHDVDSGRSIRNWVKGSLALASLLGVTWIFGLFWVEDSRSIVMAYVFTISNSLQGLFIFLFHVVFAEKMRKDVGHWMYRRGCGGSSNSSPNHKRHNVQRDLMSPGVNSSTGSDFLYNTNDKYLTNSDTTNRLVYNGIMNHPNQMSVYQQHPHHQIYEQQPGTYDYATIAYGDMMPGHRVAAPPAYQRLAVAEGRYGSQHQLYQGWHHRPPPEFSPPPPPLSTGPPNSRHYGTGSSGRRPPSSKMSDDSAYSDGSSSMLTTEVTPQGQTVLRIDLNKPSMYCQDL
chain 2: QARVEVHQEFISSKRVSVRFEIVTESHSPNRPVTFDLFPRGPKTNIILLDTFNPVFNFSIQLVQPFTGQPLGDRIYRKVQFSGTNQPWINDTFTTTSGISLSVATEVTCARNYFGNRCENFCDAHLAKAARKRCDAMGRLRCDIGWMGPHCGQAVDPRKCSCENDGICVSSMIHPSQPNQTSSNEQLICECTNGFTGTRCEIFGFNQFQLTAPRPDACSVKDACLNGAKCFPNGPKVFCSCAVGFIGEFCEISLTTTTPTTVEITVSTSGYSSAVYITVALFVIFSIIIGCFKYKFKPMRQQALARGQVPEPYKMPETKSMLIDPEASEAQKKVFTIEGSVQKIDEEVRYTSAPRKYESNNEYAVIQKSTPPPPSLSPPSIPACHYV

The variants in the assay derive from B1. Put plainly: NanoBRET; HEK293 cells; Venus::LAT-1 acceptor, Nluc::LAG-2 donor; parent: 0.0042; read off a plot. A general note: Bioluminescence resonance energy transfer reports proximity on the nanometre scale.
For the variant chain 1 L36A, chain 1 F42A, chain 1 D50A, chain 1 D52A, chain 1 V54A, the screen value is ~0.0053.
Consider chain 1 Q354A, chain 1 P355A, chain 1 D357A, chain 1 Y358A, chain 1 L360A, chain 1 L366A, chain 1 W367A, for which the screen value is ~0.0025.

For the origin of these results see paper PMC12255766 (2025).
